Experimental data published in patent US20150094211, “POLYMERASE COMPOSITIONS, METHODS OF MAKING AND USING SAME” (LIFE TECHNOLOGIES CORPORATION, published 2015).

Experiments:
Conditions in all cases: label: fluorescein-dT at N (position 34); hairpin with 5' overhang
[1] = target: T1, Bst DNA polymerase D480R (LR1; D775R in full-length numbering) (D480R); experiment: fluorescence dissociation with excess hairpin oligo 173 competitor (SEQ 22); 30 mM Tris pH 7.5, 20 mM NaCl; mutant dissociates slower
T1 chain: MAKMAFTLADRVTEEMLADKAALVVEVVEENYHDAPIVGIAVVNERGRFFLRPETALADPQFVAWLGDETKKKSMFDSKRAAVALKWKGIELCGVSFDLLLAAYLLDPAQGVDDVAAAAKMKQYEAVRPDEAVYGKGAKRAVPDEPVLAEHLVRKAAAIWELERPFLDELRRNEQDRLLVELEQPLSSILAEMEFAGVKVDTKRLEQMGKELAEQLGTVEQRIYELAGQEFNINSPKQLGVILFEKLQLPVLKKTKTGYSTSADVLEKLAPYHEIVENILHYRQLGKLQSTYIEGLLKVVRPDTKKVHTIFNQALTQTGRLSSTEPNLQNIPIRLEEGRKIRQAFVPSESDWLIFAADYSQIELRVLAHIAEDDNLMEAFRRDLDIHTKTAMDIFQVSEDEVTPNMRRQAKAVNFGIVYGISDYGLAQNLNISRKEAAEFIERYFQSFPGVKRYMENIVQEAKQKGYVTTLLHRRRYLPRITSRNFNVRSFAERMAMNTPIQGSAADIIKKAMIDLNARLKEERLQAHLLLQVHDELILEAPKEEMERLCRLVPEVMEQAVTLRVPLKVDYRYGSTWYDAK
Protocol: (§1) To perform the assay, reactions (75 μl) containing 30 mM Tris (pH 7.5), 20 mM NaCl, 50 nM oligo 221, and ˜10-200 nM partially polymerase samples (prepared according to Example 1) were assembled in 96-well plates. Baseline readings were then taken on the spectrophotometer using 490 nm excitation and 525 nm emission wavelengths. The 173 competitor oligo (2 μM final concentration) was then rapidly added to each well and plates were rapidly returned to the spectrophotometer for readings every 30 seconds for 5 minutes. The dissociation rate was calculated by fitting the data to a one-phase exponential decay equation using PrismGraph® according to the following formula: […]
(§2) Various exemplary mutations were introduced via site-directed mutagenesis into exemplary reference polymerases to generate modified polymerases. In this example, reference polymerase SEQ ID NO: 2 was modified to contain a further amino acid mutation (D480R). Reference polymerase SEQ ID NO: 15 was also modified to contain a further amino acid mutation (D732R). Additionally, reference polymerase SEQ ID NO: 18 was modified to contain amino acid mutation (D505R). The modified polymerases were sequence verified, and expressed essentially according to the procedure of Example 1. The modified polymerases were then assayed to measure dissociation rate constant essentially according to the procedure of Example 2.

[2] = target: Klenow fragment D505R (LR1) (UniProt P00582 SEQ:2-606, D505R); experiment: as above
Protocol: as §1, §2

[3] = target: Taq DNA polymerase D732R (LR1 Taq) (UniProt P19821 SEQ:1-832, D732R); experiment: as above
Chain of Taq DNA polymerase D732R (LR1 Taq) (P19821 whole entry D732R): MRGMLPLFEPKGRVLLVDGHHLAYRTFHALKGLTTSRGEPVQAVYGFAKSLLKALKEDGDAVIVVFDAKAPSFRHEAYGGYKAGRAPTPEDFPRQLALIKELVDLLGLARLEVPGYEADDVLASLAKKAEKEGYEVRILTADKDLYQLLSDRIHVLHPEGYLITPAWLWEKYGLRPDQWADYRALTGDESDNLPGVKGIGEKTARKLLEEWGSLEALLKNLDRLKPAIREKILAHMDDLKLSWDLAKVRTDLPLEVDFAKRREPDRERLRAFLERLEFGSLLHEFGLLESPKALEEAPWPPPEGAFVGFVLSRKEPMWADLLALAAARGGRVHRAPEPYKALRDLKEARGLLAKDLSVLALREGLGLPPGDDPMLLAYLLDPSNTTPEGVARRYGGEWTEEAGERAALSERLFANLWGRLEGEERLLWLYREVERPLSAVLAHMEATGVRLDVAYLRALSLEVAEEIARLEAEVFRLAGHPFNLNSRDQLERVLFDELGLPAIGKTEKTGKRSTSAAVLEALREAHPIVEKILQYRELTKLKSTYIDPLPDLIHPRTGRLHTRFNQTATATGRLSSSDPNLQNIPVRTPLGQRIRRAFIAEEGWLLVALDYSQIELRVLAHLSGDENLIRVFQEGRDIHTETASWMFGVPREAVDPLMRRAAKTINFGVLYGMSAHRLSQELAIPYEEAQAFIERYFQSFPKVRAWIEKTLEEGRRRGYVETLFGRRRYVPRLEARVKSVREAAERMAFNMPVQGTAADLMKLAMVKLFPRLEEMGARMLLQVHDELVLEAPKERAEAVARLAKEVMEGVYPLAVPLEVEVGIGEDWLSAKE
Protocol: as §1
(§3) Various exemplary mutations were introduced via site-directed mutagenesis into an exemplary reference polymerase (wild-type Taq DNA polymerase SEQ ID NO: 15) to generate a series of modified Taq DNA polymerases. In this example, reference polymerase, SEQ ID NO: 15 was modified to contain a single amino acid mutation selected from D732R, E745Q or E471K. Each modified polymerase was sequence verified, and expressed essentially according to Example 1. The modified polymerases were then assayed to measure dissociation rate constant essentially according to Example 2.

[4] = target: T2, Bst DNA polymerase F448K (labelled 488K in the text for FIG. 2) (F448K); experiment: dissociation time constant at varying salt; values only in figure; mutation printed as 488K and F448K
T2 chain: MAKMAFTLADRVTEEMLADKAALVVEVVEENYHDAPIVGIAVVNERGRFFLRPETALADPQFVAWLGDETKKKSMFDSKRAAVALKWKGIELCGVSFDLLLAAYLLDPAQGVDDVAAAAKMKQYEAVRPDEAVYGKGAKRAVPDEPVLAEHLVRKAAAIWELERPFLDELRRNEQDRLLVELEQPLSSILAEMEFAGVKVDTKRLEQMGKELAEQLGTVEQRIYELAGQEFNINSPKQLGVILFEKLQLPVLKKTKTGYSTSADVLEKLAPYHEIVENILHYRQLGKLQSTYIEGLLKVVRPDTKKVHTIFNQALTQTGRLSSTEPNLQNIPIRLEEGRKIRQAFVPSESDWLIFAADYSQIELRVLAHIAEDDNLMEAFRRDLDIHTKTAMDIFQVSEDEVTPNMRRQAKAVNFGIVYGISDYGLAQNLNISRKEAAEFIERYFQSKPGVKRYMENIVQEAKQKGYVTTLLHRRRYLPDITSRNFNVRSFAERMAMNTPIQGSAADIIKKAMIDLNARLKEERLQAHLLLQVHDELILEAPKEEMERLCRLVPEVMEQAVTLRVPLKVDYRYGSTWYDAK
Protocol: (§4) Dissociation is measured by the decrease in fluorescence that occurs when the Bst polymerase dissociates from the template. Dissociation is initiated by adding a vast excess of unlabeled, competitor DNA (hairpin oligo 173) having the following nucleotide sequence:
as §1

[5] = target: T3, Bst DNA polymerase G425R (G425R); experiment: dissociation time constant at varying salt; values only in figure
T3 chain: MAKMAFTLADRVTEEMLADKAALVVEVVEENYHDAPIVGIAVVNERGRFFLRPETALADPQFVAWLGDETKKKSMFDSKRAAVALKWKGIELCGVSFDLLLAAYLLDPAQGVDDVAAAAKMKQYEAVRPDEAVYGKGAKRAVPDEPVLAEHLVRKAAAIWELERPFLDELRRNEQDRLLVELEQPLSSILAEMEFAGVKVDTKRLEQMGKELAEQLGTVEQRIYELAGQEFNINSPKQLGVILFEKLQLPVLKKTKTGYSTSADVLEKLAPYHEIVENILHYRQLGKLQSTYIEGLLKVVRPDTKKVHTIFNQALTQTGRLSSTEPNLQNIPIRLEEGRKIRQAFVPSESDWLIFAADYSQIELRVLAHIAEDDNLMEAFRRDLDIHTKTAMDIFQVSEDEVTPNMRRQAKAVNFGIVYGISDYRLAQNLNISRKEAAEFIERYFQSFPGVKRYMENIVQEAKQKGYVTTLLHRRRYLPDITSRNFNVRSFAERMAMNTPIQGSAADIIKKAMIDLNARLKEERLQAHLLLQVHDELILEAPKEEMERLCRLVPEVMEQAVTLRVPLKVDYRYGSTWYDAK
Protocol: as §4, §1

[6] = target: T4, Bst DNA polymerase D144K (D144K); experiment: as above
T4 chain: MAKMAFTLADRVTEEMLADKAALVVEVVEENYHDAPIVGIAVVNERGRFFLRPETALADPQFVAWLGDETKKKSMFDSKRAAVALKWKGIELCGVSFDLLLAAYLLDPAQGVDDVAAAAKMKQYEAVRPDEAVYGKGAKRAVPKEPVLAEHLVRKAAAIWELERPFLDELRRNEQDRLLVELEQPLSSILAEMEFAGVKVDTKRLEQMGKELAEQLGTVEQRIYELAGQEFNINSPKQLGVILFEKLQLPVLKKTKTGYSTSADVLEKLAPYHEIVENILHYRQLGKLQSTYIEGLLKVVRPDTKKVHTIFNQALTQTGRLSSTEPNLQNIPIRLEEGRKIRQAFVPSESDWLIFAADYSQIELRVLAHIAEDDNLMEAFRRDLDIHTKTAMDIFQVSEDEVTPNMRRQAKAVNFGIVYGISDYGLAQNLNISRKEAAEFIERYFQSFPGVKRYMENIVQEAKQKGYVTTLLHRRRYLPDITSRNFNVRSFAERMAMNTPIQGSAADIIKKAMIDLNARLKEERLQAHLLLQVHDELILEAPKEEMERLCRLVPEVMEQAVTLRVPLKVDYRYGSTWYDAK
Protocol: as §4, §1

[7] = target: Taq DNA polymerase E745Q (UniProt P19821 SEQ:1-832, E745Q); experiment: fluorescence dissociation with excess hairpin oligo 173 competitor (SEQ 22); mutant dissociates slower
Chain of Taq DNA polymerase E745Q (P19821 whole entry E745Q): as the sequence (P19821 whole entry D732R) above, with R732D, E745Q counted along it
Protocol: as §1, §3

[8] = target: Taq DNA polymerase E471K (UniProt P19821 SEQ:1-832, E471K); experiment: as above
Chain of Taq DNA polymerase E471K (P19821 whole entry E471K): as the sequence (P19821 whole entry D732R) above, with E471K, R732D counted along it
Protocol: as §1, §3

[9] = target: Klenow fragment (wild type) (UniProt P00582 SEQ:2-606); experiment: reference; dissociates 13-fold faster than D505R; rate constant only in figure
[10] = target: T5, Bst DNA polymerase large fragment (Bst 1.0, reference); experiment: reference; dissociates 4.7-fold faster than D480R; rate constant only in figure
T5 chain: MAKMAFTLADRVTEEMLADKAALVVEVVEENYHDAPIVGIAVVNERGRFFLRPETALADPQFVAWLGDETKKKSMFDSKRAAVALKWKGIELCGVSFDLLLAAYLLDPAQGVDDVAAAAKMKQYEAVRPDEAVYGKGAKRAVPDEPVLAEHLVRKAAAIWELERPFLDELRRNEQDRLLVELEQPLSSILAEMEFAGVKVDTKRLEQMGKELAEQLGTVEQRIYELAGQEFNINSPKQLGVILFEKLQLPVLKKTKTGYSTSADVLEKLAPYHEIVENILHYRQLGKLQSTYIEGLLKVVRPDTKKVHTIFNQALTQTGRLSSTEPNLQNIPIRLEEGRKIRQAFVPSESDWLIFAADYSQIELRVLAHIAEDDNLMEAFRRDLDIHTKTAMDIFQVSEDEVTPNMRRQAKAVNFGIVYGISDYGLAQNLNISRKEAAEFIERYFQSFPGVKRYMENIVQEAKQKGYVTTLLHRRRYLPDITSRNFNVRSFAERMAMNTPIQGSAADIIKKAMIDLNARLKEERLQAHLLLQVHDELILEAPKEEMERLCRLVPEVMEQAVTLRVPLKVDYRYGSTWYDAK

**Q.** For TTTTTTTGCAGGTGACAGGTTTTTCCTGTCACCTGC (structured_DNA, [fluorescein-dT at 34]) [oligo 221], which binding signal [1] is on record?
**A.** 4.7 fold (koff reference/koff mutant)

**Q.** And the binding signal [2]?
**A.** 13 fold (koff wt/koff mutant)

**Q.** And the binding signal [3]?
**A.** 14.1 fold (koff wt/koff mutant)

**Q.** Does TTTTTTTGCAGGTGACAGGTTTTTCCTGTCACCTGC (structured_DNA, [fluorescein-dT at 34]) [oligo 221] bind [4]?
**A.** binds

**Q.** Does TTTTTTTGCAGGTGACAGGTTTTTCCTGTCACCTGC (structured_DNA, [fluorescein-dT at 34]) [oligo 221] bind [5]?
**A.** binds

**Q.** Does TTTTTTTGCAGGTGACAGGTTTTTCCTGTCACCTGC (structured_DNA, [fluorescein-dT at 34]) [oligo 221] bind [6]?
**A.** binds

**Q.** And the binding signal [7]?
**A.** 4.7 fold (koff wt/koff mutant)

**Q.** What about the binding signal [8] of the same binder?
**A.** 5 fold (koff wt/koff mutant)

**Q.** Does TTTTTTTGCAGGTGACAGGTTTTTCCTGTCACCTGC (structured_DNA, [fluorescein-dT at 34]) [oligo 221] bind [9]?
**A.** binds

**Q.** Does TTTTTTTGCAGGTGACAGGTTTTTCCTGTCACCTGC (structured_DNA, [fluorescein-dT at 34]) [oligo 221] bind [10]?
**A.** binds
